{"source": "patent US20180362766A1", "about": "“Fluorogenic pH-Sensitive Dyes and Their Methods of Use” (Life Technologies Corporation, priority 2012, published 2018)", "molecules": {"B1": {"name": "Compound (24)-labeled EGF: epithelial growth factor (EGF) conjugated to Compound (24) STP ester, degree of substitution 1 (conjugate, UniProt P01133 23-1207, looked up)", "Pro-epidermal growth factor": "PQHWSCPEGTLAGNGNSTCVGPAPFLIFSHGNSIFRIDTEGTNYEQLVVDAGVSVIMDFHYNEKRIYWVDLERQLLQRVFLNGSRQERVCNIEKNVSGMAINWINEEVIWSNQQEGIITVTDMKGNNSHILLSALKYPANVAVDPVERFIFWSSEVAGSLYRADLDGVGVKALLETSEKITAVSLDVLDKRLFWIQYNREGSNSLICSCDYDGGSVHISKHPTQHNLFAMSLFGDRIFYSTWKMKTIWIANKHTGKDMVRINLHSSFVPLGELKVVHPLAQPKAEDDTWEPEQKLCKLRKGNCSSTVCGQDLQSHLCMCAEGYALSRDRKYCEDVNECAFWNHGCTLGCKNTPGSYYCTCPVGFVLLPDGKRCHQLVSCPRNVSECSHDCVLTSEGPLCFCPEGSVLERDGKTCSGCSSPDNGGCSQLCVPLSPVSWECDCFPGYDLQLDEKSCAASGPQPFLLFANSQDIRHMHFDGTDYGTLLSQQMGMVYALDHDPVENKIYFAHTALKWIERANMDGSQRERLIEEGVDVPEGLAVDWIGRRFYWTDRGKSLIGRSDLNGKRSKIITKENISQPRGIAVHPMAKRLFWTDTGINPRIESSSLQGLGRLVIASSDLIWPSGITIDFLTDKLYWCDAKQSVIEMANLDGSKRRRLTQNDVGHPFAVAVFEDYVWFSDWAMPSVMRVNKRTGKDRVRLQGSMLKPSSLVVVHPLAKPGADPCLYQNGGCEHICKKRLGTAWCSCREGFMKASDGKTCLALDGHQLLAGGEVDLKNQVTPLDILSKTRVSEDNITESQHMLVAEIMVSDQDDCAPVGCSMYARCISEGEDATCQCLKGFAGDGKLCSDIDECEMGVPVCPPASSKCINTEGGYVCRCSEGYQGDGIHCLDIDECQLGEHSCGENASCTNTEGGYTCMCAGRLSEPGLICPDSTPPPHLREDDHHYSVRNSDSECPLSHDGYCLHDGVCMYIEALDKYACNCVVGYIGERCQYRDLKWWELRHAGHGQQQKVIVVAVCVVVLVMLLLLSLWGAHYYRTQKLLSKNPKNPYEESSRDVRSRRPADTEDGMSSCPQPWFVVIKEHQDLKNGGQPVAGEDGQAADGSMQPTSWRQEPQLCGMGTEQGCWIPVSSDKGSCPQVMERSFHMPSYGTQTLEGGVEKPHSLLSANPLWQQRALDPPHQMELTQ", "modifications": "Pro-epidermal growth factor Compound (24) dye conjugate"}}, "system": "A 431 cells", "experiment": "Live cell internalization (endocytosis) of dye-labeled EGF, fluorescence imaging", "type": "cell-based", "experimental": "A 431 cells were grown in complete medium on 35 mm poly-D-lysine coated glass bottom culture dishes from MatTek. On the day of the assay, cells were rinsed once with LCIS +1% BSA (Live Cell imaging solution, Cat# A14291DJ) and placed at 37° C. Control dishes received LCIS; EGF pretreatment dishes received 10 μg/mL unlabeled EGF in LCIS. Cells were incubated at 37° C. for 30 minutes. Cells were then cooled to 4° C. on ice for 10 minutes. Compound (24)-labeled EGF was added to the dishes 1:10 at 5 μg/mL from a 50 μg/mL stock in LCIS. These dishes were incubated on ice for 30 minutes, then washed 2× with cold LCIS and allowed to warm to 37° C. for 60 minutes before imaging with standard TRITC and FITC filter sets on a DeltaVision Core microscope. […] All images were matched for gain and exposure times."}
{"molecule": "B1", "values": [{"measurement": "fluorescent signal from dye-labeled EGF internalization", "setting": "cells pretreated with 10 μg/mL unlabeled EGF", "value": "no signal"}, {"measurement": "fluorescent signal from dye-labeled EGF internalization", "setting": "untreated (control) plates, 5 μg/mL labeled EGF, 60 minutes at 37° C.", "value": "Specific signal"}]}
